Experimental data from patent US20240398942A1 (CHIA TAI TIANQING PHARMACEUTICAL GROUP, published 2024).
Changes are numbered by the printed parent chain. Where two headings read alike, the source gives them in different places. Values belong to the binder of their own block, whether it stands above or below them.

Assays:
[1] = target: T1, full-length human CD40 on 293T-NF-κB-Luc-CD40 reporter cells (human, UniProt P25942 21-277); assay: flow cytometry (FACS) on 293T-CD40 cells stably expressing full-length human CD40, PE-labeled goat anti-human IgG Fc, MFI
T1 construct: Stably expressed full-length human CD40; also called uniprot P25942-1
Description: The binding of the anti-CD40 antibody to 293T-CD40 cells (prepared by Biosion) that stably express full-length human CD40 (uniprot #P25942-1, SEQ ID NO: 30) on the cell membrane was measured by flow cytometry (FACS). According to the instructions of lipofectamine 3000 transfection reagent (Thermo Fisher), 293T-CD40 cells were prepared by transfecting 293T cells with pCMV-T-P plasmid inserted with CD40 coding sequence between EcoRI and XbaI loci. Specifically, 293T-CD40 cells were harvested from cell culture flasks, washed twice, and resuspended in FACS buffer (phosphate buffered saline (PBS) containing 2% v/v of fetal bovine serum). The anti-CD40 antibody of the present application or the benchmark serially 4-fold diluted in the FACS buffer from 80 nM was added at 100 μL/well to a 96-well plate containing 2×10⁵ cells/well. The plate was incubated in an ice bath for 40 min. After the cells were washed twice with the FACS buffer, an affinity-purified R-phycoerythrin-labeled goat anti-human IgG (Fcγ fragment-specific, Jackson Immuno Research, Cat. No. 109-115-098, 1:1000 diluted in the FACS buffer) was added at 100 μL per well. After incubation at 4° C. for 40 min in the dark, the cells were washed thrice and resuspended in the FACS buffer. Fluorescence values were measured using Becton Dickinson FACS Canto II-HTS, and curves of fluorescence value vs. antibody concentration were plotted. Data were analyzed using Graphpad Prism software, and EC₅₀ values were obtained.

[2] = target: T2, human CD40-Fc protein (human, biotinylated (sites not given) in the capture ELISA and the benchmark blocking ELISA; not biotinylated in the ligand blocking ELISA); assay: capture ELISA: antibody captured on coated goat anti-human IgG F(ab')2, biotinylated human CD40-Fc 1.15 nM, streptavidin-HRP, OD(450-630)
T2 construct: also called biotinylated human CD40-Fc
Description: (§1) The plate was washed once with a washing buffer (PBS+0.05% v/v of Tween-20, PBST) and then blocked with 200 μL/well blocking buffer (PBST containing 5% w/v of skim milk) for 2 h at 37° C. The plate was washed 4 times, and the anti-CD40 antibody of the present application, BM1, BM2, and a negative control hIgG (human immunoglobulin for intravenous injection (pH 4), Hualan Biological Engineering Inc.) serially 5-fold diluted from 66.7 nM in a PBST containing 2.5% w/v of skim milk was added at 100 μL per well. The plate was incubated for 40 min at 37° C. and washed 4 times. A biotinylated human CD40-Fc protein (amino acid residues 21-193 of SEQ ID NO: 30 linked to the N terminus of amino acid residues 99-330 of SEQ ID NO: 28, dissolved in PBST containing 2.5% w/v of skim milk at a concentration of 1.15 nM) was added at 100 μL/well to a 96-well plate coated with the anti-CD40 antibody. The plate was incubated at 37° C. for 40 min and washed 4 times. An HRP-labeled streptavidin (diluted at 1:10000 in PBST, Jackson Immuno Research, Cat. No. 016-030-084) was added at 100 μL/well, and the plate was incubated at 37° C. for another 40 min. After the last wash, 100 μL/well of ELISA substrate TMB (Innoreagents, Cat. No. TMB-S-002) was added and the plate was incubated at room temperature. After 3-10 min, the reaction was stopped by adding 1 M H₂SO₄ at 50 µL/well, and the absorbance of each well was read on a microplate reader using the dual wavelength mode (TMB detection wavelength: 450 nm, reference wavelength: 630 nm). Curves of OD(450-630) values vs. antibody concentration were plotted. Data were analyzed using Graphpad Prism software, and EC₅₀ values were obtained.

[3] = target: T2, human CD40-Fc protein; assay: as above; remark: listed apart in the source
Description: as §1

[4] = target: T2, human CD40-Fc protein; assay: competitive ELISA: human CD40-Fc coated, antibody titrated, blocked ligand biotinylated human CD40L-his (95 ng/mL), streptavidin-HRP, OD(450-630)
Description: The ability of the anti-CD40 antibody to block the binding of CD40 to CD40L was determined by competitive ELISA. Briefly, a human CD40-Fc protein (amino acid residues 21-193 of SEQ ID NO: 30 linked to the N terminus of amino acid residues 99-330 of SEQ ID NO: 28) dissolved in the immobilization buffer (carbonate/bicarbonate buffer) at a concentration of 2 μg/mL was immobilized on a 96-well plate at 100 μL/well and incubated overnight at 4° C. The next day, the plate was washed once with a washing buffer (PBS+0.05% v/v of Tween-20, PBST) before a PBST containing 5% w/v of skim milk was added. The plate was then incubated at 37° C. for 2 h for blocking. The plate was then washed 4 times with the washing buffer.
The anti-CD40 antibody of the present application or the benchmark was serially 5-fold diluted from 200 nM in a PBST containing 2.5% w/v of skim milk, and the serially diluted anti-CD40 antibody or benchmark was added at 100 μL/well to a plate coated with CD40-Fc protein and incubated at 37° C. for 40 min. The plate was then washed 4 times with the washing buffer before a biotinylated human CD40L-his protein (Sino Biological Inc., Cat. No. 10239-H08E, 95 ng/mL) was added at 100 μL per well. The plate was then incubated for 40 min at 37° C. The plate was washed again with the washing buffer. Then, an HRP-labeled streptavidin (Jackson Immunoresearch, Cat. No. 016-030-084, 1:10000 diluted in PBST buffer) was added at 100 μL/well and the plate was incubated at 37° C. for 40 min. The plate was washed again with the washing buffer. Finally, TMB was added and the reaction was stopped by adding 1 M H₂SO₄. The absorbance of each well was read on a microplate reader using the dual wavelength mode (TMB detection wavelength: 450 nm, reference wavelength: 630 nm). Curves of OD(450-630) values vs. antibody concentration were plotted. Data were analyzed using Graphpad Prism software, and IC₅₀ values were obtained.

B2: chimeric antibody C1H1 (antibody, human IgG1, kappa, V domains shown)
VH: EVKLVESGGGLVKPGASLKLSCAASGFTFSNYGISWVRQTSDKRLEWVASISSGGDNTYYPDNVKGRFTISRENAKNTLYLQMSSLKSEDTALYYCARAGEKAMDYWGQGTSVTVSS
VL: DIVLTQSPVTLSVTPGDSVSLSCRASQTINNNLHWYQQKSHESPRLLIKYASQSISGIPSRFSGSGSGTDFTLSINSVETEDFGIYFCQQFSSWPLTFGAGTKLELKR
notes: also called Chimeric C1H1
- EC50 [1]: 2.13 nM
- EC50 [2]: 0.198 nM
- EC50 [3]: 0.343 nM
- IC50 [4]: 6.97 nM

B3: BM2 (selicrelumab) (antibody, human IgG2, kappa, V domains shown)
VH: not shown
VL: DIQMTQSPSSVSASVGDRVTITCRASQGIYSWLAWYQQKPGKAPNLLIYTASTLQSGVPSRFSGSGSGTDFTLTISSLQPEDFATYYCQQANIFPLTFGGGTKVEIKR
notes: Benchmark antibody, prepared in-house; also called CD40-BM2; benchmark
- EC50 [1]: 3.52 nM
- EC50 [2]: 0.72 nM
- EC50 [3]: 1.34 nM
- IC50 [4]: 7.22 nM

B5: humanized antibody huC1H1-V1 (antibody, human IgG2, kappa, V domains shown)
VH: EVQLVESGGGLVKPGGSLRLSCAASGFTFSNYGISWVRQAPGKGLEWVASISSGGDNTYYPDNVKGRFTISRDNAKNSLYLQMNSLRAEDTAVYYCARAGEKAMDYWGQGTLVTVSS
VL: EIVLTQSPATLSLSPGERATLSCRASQTINNNLHWYQQKPGQAPRLLIKYASQSISGIPARFSGSGSGTDFTLTISSLEPEDFAVYFCQQFSSWPLTFGGGTKVEIKR
notes: Human IgG2 / kappa
- EC50 [1]: 4.95 nM
- EC50 [2]: 0.574 nM
- IC50 [4]: 7.91 nM

B6: humanized antibody huC1H1-V2 (antibody, human IgG2, kappa, V domains shown)
VH: B5 VH with A49S
VL: B5 VL
notes: Human IgG2 / kappa
- EC50 [1]: 4.64 nM
- EC50 [2]: 0.424 nM
- IC50 [4]: 6.1 nM

These reach a lower EC50 [1]. Values come first.

- EC50 [1]: 1.44 nM
- EC50 [2]: 0.141 nM
- EC50 [3]: 0.203 nM
- IC50 [4]: 6.46 nM
B1: mouse anti-CD40 monoclonal antibody C1H1 (antibody, V domains shown)
VH: B2 VH
VL: DIVLTQSPVTLSVTPGDSVSLSCRASQTINNNLHWYQQKSHESPRLLIKYASQSISGIPSRFSGSGSGTDFTLSINSVETEDFGIYFCQQFSSWPLTFGAGTKLELK
notes: Parent mouse antibody from a hybridoma; the mouse constant regions are not; also called Mouse C1H1

- EC50 [1]: 0.375 nM
- EC50 [2]: 0.101 nM
- EC50 [3]: 0.59 nM
- IC50 [4]: 2.01 nM
B4: BM1 (dacetuzumab) (antibody, human IgG1, kappa, V domains shown)
VH: EVQLVESGGGLVQPGGSLRLSCAASGYSFTGYYIHWVRQAPGKGLEWVARVIPNAGGTSYNQKFKGRFTLSVDNSKNTAYLQMNSLRAEDTAVYYCAREGIYWWGQGTLVTVSS
VL: DIQMTQSPSSLSASVGDRVTITCRSSQSLVHSNGNTFLHWYQQKPGKAPKLLIYTVSNRFSGVPSRFSGSGSGTDFTLTISSLQPEDFATYFCSQTTHVPWTFGQGTKVEIKR
notes: Benchmark antibody, prepared in-house; also called CD40-BM1; benchmark
